Experimental data published in PMC12750270, “Design and Preclinical Evaluation of a ^68Ga-Labeled Macrocyclic Peptide PET Probe Targeting Transferrin Receptor 1 in Colorectal Cancer” (ACS Omega, 2025).

B1: NOTA-TR01 [cyclo(Ac-Ala-Val-Phe-Val-Trp-Asn-Tyr-Tyr-Ile-Ile-Arg-Arg-Tyr-NMe-Tyr-Cys)-PEG12-Lys-NOTA] (peptide)
peptide: AVFVWNYYIIRRYYCK
modifications: cyclo(Ac-Ala1 ... Cys15) as printed; N-terminal Ac; NMe-Tyr at position 14; PEG12 between Cys15 and the C-terminal Lys; NOTA on the Lys
notes: the 15-residue macrocycle, printed in three-letter code; position 14 is N-methyl-Tyr; C-terminal Lys that carries NOTA; joined to Cys15 through a PEG12 spacer (no amino acids); a thioether from an N-terminal chloroacetyl group is only surmised; also called unlabeled TR01; unlabeled NOTA-TR01; source: synthetic peptide, custom synthesized by A+ Peptide (Shanghai, China), >95% purity
B2: ^68Ga-NOTA-TR01 (peptide)
peptide: AVFVWNYYIIRRYYCK
modifications: cyclo(Ac-Ala1 ... Cys15) as printed; N-terminal Ac; NMe-Tyr at position 14; PEG12 between Cys15 and the C-terminal Lys; NOTA on the Lys, holding ^68Ga

Legend:
[1] = biological target: T1, Recombinant human TfR1-Fc protein (TFR-H5264, Acro Biosystems) (human, UniProt P02786 101-760); experiment: SPR; Biacore 8K; recombinant human TfR1-Fc immobilized on the sensor chip; TR01 at 62.5–1,000 nM; as printed: 'acidic conditions (pH 2.0) using a running buffer containing TfR1 at 30 μg/mL'; global fit of association and dissociation curves; conditions: both partners purified
T1 construct: Transferrin receptor 1 (TfR1/CD71), human; As recalled, the supplier's TfR1 constructs hold the extracellular part (about Cys89-Phe760); source: bought: Acro Biosystems
T1 sequence (P02786 101-760): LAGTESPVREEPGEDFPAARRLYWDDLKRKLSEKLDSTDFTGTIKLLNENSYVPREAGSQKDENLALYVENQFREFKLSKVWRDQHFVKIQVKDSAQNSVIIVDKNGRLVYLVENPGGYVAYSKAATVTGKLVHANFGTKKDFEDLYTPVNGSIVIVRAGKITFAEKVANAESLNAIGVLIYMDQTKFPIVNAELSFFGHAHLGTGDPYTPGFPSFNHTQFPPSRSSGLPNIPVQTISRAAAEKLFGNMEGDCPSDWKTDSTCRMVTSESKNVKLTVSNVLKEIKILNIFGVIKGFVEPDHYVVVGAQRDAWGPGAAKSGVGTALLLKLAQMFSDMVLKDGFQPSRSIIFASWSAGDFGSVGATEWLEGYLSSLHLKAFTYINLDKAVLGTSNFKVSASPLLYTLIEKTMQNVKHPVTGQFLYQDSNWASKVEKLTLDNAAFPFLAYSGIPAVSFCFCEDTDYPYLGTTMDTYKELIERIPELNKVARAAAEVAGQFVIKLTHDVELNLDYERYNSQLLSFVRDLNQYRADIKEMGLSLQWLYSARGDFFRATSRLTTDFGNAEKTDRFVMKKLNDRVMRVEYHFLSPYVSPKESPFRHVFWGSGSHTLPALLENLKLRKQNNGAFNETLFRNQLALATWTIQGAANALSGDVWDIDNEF

[2] = biological target: Transferrin Receptor 1 (TfR1/CD71) on human colorectal cancer cells (HT29: high expression); LOVO: low … (human (endogenous in HT29 and LOVO), UniProt P02786 1-760); experiment: cell-based or functional assay
Sequence of Transferrin Receptor 1 (TfR1/CD71) on human colorectal cancer cells (HT29: high expression); LOVO: low … (P02786 whole entry): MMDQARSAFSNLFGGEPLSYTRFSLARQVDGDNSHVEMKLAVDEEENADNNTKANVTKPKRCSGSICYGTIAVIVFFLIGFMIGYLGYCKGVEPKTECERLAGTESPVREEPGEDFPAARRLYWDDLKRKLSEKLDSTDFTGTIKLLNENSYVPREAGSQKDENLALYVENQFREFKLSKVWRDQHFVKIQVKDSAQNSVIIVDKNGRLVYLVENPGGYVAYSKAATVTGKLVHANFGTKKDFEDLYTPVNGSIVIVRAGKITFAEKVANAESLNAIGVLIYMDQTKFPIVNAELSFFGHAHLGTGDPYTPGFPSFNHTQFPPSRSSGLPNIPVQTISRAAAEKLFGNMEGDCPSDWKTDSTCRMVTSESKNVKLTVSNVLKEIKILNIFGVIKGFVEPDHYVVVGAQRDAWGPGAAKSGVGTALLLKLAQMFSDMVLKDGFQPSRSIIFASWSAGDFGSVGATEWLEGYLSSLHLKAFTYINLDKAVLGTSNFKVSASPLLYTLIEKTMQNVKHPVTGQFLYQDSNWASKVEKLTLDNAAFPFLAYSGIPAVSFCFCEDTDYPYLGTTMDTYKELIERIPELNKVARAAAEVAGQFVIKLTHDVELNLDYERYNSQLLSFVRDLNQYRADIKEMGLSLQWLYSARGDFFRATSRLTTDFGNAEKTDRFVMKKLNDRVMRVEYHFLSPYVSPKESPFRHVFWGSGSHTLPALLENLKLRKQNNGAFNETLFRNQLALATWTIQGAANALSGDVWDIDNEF

Binder	Kd [1]	koff [1]	kon [1]	biodistribution: tumor-to-muscle (T/M) ratio in HT29 tumor-bearing mice, 30 to 120 min postinjection (3.73, 5.10, 9.18) [2]	biodistribution: tumor-to-muscle (T/M) ratio in LOVO-bearing mice (low TfR1), 30 to 120 min postinjection (2.30, 3.16, 5.01) [2]	tumor-to-muscle (T/M) ratio in HT29 xenografts by micro-PET/CT with coinjection of excess unlabeled NOTA-TR01, 30 to 120 min (0.47, 0.45, 0.86) [2]	tumor-to-muscle (T/M) ratio in HT29 xenografts by micro-PET/CT, 30 to 120 min postinjection (2.79, 3.98, 7.88) [2]	tumor-to-muscle (T/M) ratio in LOVO xenografts (low TfR1) by micro-PET/CT, 30 to 120 min postinjection (1.65, 2.30, 2.94) [2]
B1	22.3 nM	0.00173 s⁻¹	77300 M⁻¹ s⁻¹	–	–	–	–	–
B2	–	–	–	9.18	5.01	0.86	7.88	2.94
